B1: NMC-103: mouse monoclonal antibody, IgG1 isotype, binds NMC-P1 (SEQ ID NO:1); VH SEQ ID NO:36, VL SEQ ID NO:37 (antibody, V domains shown)
VH: EVQLQESGGGLVQPGGSLRLSCTTSGFTFTHYYMSWVRQPPGKALEWLGFIRNKAKGYTAEYSASVKGRFTISRDNSQSILYLQMNTLRPEDSATYYCARDIGDNWGQGTLVTVSS
VL: DIVMTQAAFSNPVTLGTSASISCRSSKNLLHSNGITYLYWYLQRPGQSPQLLISRVSNLASGVPNRFSGSESGTDFTLRISRVEAEDVGVYFCAQLLELPYTFGGGTKLEIK
modifications: mAb NMC-103 Heavy Chain Variable Region; mAb NMC-103 Light Chain Variable Region
B2: NMC-204: mouse monoclonal antibody, IgG3 isotype, binds NMC-P2 (SEQ ID NO:2); VH SEQ ID NO:38, VL SEQ ID NO:39 (antibody, V domains shown)
VH: EVQLQESGSVLVRPGASVKLSCKASGDTLSGSWMHWAMQRPGQGLEWIGEIHLNRGTTNYNEKFKGKATVTVDTSSSTAYVDLSSLTSEDSAVYYCARSPGFAYWGQGTLVTVSA
VL: GIVMTQAAPSVPVTPGESVSISCRSSKSLLHSNGNSYLYWFLQRPGQSPQLLIYRMSNLASGVPDRFSGSGSGTAFTLRITRVEAEDVGVYYCMQHLEYPFTFGSGTKLEIK
modifications: mAb NMC-204 Heavy Chain Variable Region; mAb NMC-204 Light Chain Variable Region

Assays:
[1] = biological target: T1, recombinant full-length HDM2 protein (GST tagged) (Homo sapiens, UniProt Q00987); assay: Western blot (immunoblot); assay type: binding; conditions: 1 μg/well protein; band at approximately 83 kD; FIG. 2
T1 construct: reacted with the recombinant full-length HDM2 protein; purchased Abcam ab188727
Protocol: Western Blot: As for immunoblots, 1 μg/well of recombinant FIDM2 protein (GST tagged, Abeam, Cat. No. ab188727) was separated on 8-16% sodium dodecyl sulfate (SDS) polyacrylamide gel and proteins were then transferred to polyvinylidene difluoride (PVDF) membrane. The membrane was blocked with 5% milk followed by incubation with monoclonal antibody NMC-103, NMC-204 or NMC-303 at 1 μg/πι ? in 1% milk in PBS for 2 hours. The membrane was then washed×3 times (10 minutes each) and incubated for 1 hour with corresponding HRP-conjugated secondary antibody (Goat anti-Mouse IgG (H&L), F(ab′)2 Frag Cross-adsorbed HRP (HRP-GaM F(ab′)2), ThermoFisher, Cat. No. A24524) diluted 1:5000 in 1% BSA-PBS. The membrane was then washed×3 times and incubated with Pierce ECL Plus Western Blotting Substrate (ThermoFisher, Cat. No. #32132) for 10 min before developing on a LICOR Scanner.

[2] = test system: human breast cancer MCF-7 cells; assay: Cell-ELISA, intact cells; assay type: binding; conditions: mAb 1 μg/mL, FIGS. 3-5
Protocol: (§1) Cell-ELISA Methodology: 8,000-10,000 cells/well of a 96-well microplate were grown overnight. The next day, unbound cells were washed off with sterile 1× PBS. The cells in each well were fixed with freshly prepared 4% buffered paraformaldehyde (pH 7.2) for 1 hour followed by 3 washes with 1× PBS. The wells were then blocked with 5% BSA in PBS (100 ? /well) for 2 hours at room temperature. Microplate wells were then washed 5 times with 300 ? of ice cold 1× PBS. MAbs NMC-103, NMC-204 or NMC-303 at 1 μg/mL in 1% BSA/PBS were then incubated with various cancer or normal untransformed cells for 2 hours at room temperature. Wells were then washed with 300 ? of ice-cold 1× PBS for 5 times and corresponding secondary antibody HRP-GaM F(ab′)2 diluted 1:2500 or 1:5000 in PBS with 1% BSA were added at 100 ? /well for 1 hour at room temperature followed by washing 5 times with 300 ? of ice-cold 1× PBS. TMB Substrate Solution (1-StepTM Ultra TMB-ELISA, ThermoFisher, Cat. No. 34028) was then added at 50 ? ? to each microplate well and incubated at room temperature for 30 minutes. The reaction was stopped by addition of 50 μL, of stop solution (ThermoFisher, Cat. No. SSO4) to each well and absorbance of each well was measured at OD450 nm. The absorbance value of each experimental well was corrected for the absorbance value obtained from wells treated with isotype-identical mAbs included in each experiment. The results are thus expressed as “relative binding”.

[3] = test system: human pancreatic cancer MIA PaCa-2 cells; assay: Cell-ELISA, intact cells; assay type: binding; conditions: for binding to intact, EDTA-released MiaPaCa-2 cells, cell-ELISA: EDTA 10 mmols, pH 7.2, 5 min, 37° C., FIG. 10; for binding to intact MIA PaCa-2 cells when competed with NMC-P2 peptide / binding to intact MIA PaCa-2 cells when competed with soluble NMC-P1 peptide: FIG. 8; for relative binding (reactivity) to intact cells, cell-ELISA: MIA PaCa-2, mAb 1 μg/mL, FIGS. 3-5
Protocol: as §1

[4] = test system: normal human peripheral blood mononuclear cells (PBMCs); assay: Cell-ELISA, intact normal cells; assay type: binding; conditions: freshly isolated PBMCs; FIG. 6
Protocol: as §1

[5] = test system: mouse Lewis Lung LL/2 cancer cells; assay: Flow cytometry, EDTA versus trypsin, intact versus permeabilized cells; assay type: binding; conditions: antibody 5 μg/ml, FIG. 11
Protocol: Flow Cytometry Methodology: Cells that had been allowed to grow to about 80% confluency in 25 cm^2 tissue culture flasks were released with either EDTA (10 mmols; pH7.2; 5 min, 37° C.) or Trypsin (Gibco TrypLE Express), fixed with freshly made 4% buffered (pH 7.4) paraformaldehyde for 1 h at room temperature, washed several times with a large volume of ice-cold PBS, and blocked for 30 minutes at room temperature with 5% human serum albumin in PBS (intact, non-permeabilized cells). After establishing viability, the cell number was adjusted to 10^6 cells/ml and kept in ice-cold PBS until staining. Another set of the same cells was released with either EDTA or Trypsin and fixed with 4% buffered paraformaldehyde as above, then washed and blocked with 5% human serum albumin in PBS, and was treated separately with Triton X-100 (0.1% in PBS) (International Biotechnologies Inc. 07100) for 5 minutes at room temperature for membrane permeabilization. After washing off the Triton X-100 solution with PBS the cells were adjusted to 10^6 cells/ml and stored in ice-cold PBS. Cells (10^6/ml) from each preparation were then incubated either with 5 μg/ml of mAb to Na+/K+ ATPase ? -1 (Abeam, Cat. No. ab2826), 5 μg/ml of mAb NMC-103, or 5 μg/ml of mAb NMC-204 for 90 min at room temperature. Following primary antibody incubation, cells were washed 3 times with ice-cold PBS followed by incubation with rabbit anti-mouse PE-Cy5 labeled secondary antibody (PE-Cy5-RaM IgG (H&L); Invitrogen, Cat. No. M35018) at room temperature. Sixty minutes later the cells were washed 3 times with PBS and subjected to flow cytometry analysis (BD Canto Flow Cytometry). Controls to establish background fluorescence included the analysis of samples of unstained cells as well as cells that had been processed with secondary antibody under the same conditions as used in the experimental samples.
To further validate that the epitopes of the plasma membrane M(H)DM2 are in fact extracellularly accessible sequences on cancer cells, binding of mAbs NMC-103, NMC-204 and NMC-303 was performed on mouse Lewis Lung LL/2 cancer cells under treatment conditions of EDTA versus trypsin. Both of these conditions were also tested on intact versus permeabilized cells. FIG. 11 panels A, B and C present flow cytometry data on % cells stained with mAbs NMC-103, NMC-204 and anti-Na+/K+ ATPase ? -1, respectively. Each antibody was reacted with cells from four treatment conditions: EDTA-treated intact cells, EDTA-treated permeabilized cells, trypsin-treated intact cells, trypsin-treated permeabilized cells. […] However, when trypsin-treaded cells were permeabilized, the above reduction in binding was compensated by reactivity of the antibodies to intracellular MDM2 or Na+/K+ ATPase a-1.

[6] = test system: Human pancreatic cancer MIAPaCa-2 cells; assay: In vitro growth inhibition (cell count); assay type: cell-based; conditions: overnight
Protocol: Methodology used: Human pancreatic cancer MIAPaCa-2 cells (8,000 cells/well) were pre-incubated with mAb NMC-103, NMC-204 and anti-Cytochrome-C antibody (Santa Cruz, Cat No. sc-13156) at 1, 5 and 10 μg/mL, respectively. Cells in the presence of one of the antibodies at various concentrations were then plated in triplicate in 96-well cell culture plates overnight. The next day, each plate well was analyzed morphologically and a picture was taken from each well using EVOS FL microscope. Cell count was also performed and the number of living cells was graphed as % of control.

[7] = EDTA-treated permeabilized cells (Triton X-100)

T1 sequence (Q00987 whole entry): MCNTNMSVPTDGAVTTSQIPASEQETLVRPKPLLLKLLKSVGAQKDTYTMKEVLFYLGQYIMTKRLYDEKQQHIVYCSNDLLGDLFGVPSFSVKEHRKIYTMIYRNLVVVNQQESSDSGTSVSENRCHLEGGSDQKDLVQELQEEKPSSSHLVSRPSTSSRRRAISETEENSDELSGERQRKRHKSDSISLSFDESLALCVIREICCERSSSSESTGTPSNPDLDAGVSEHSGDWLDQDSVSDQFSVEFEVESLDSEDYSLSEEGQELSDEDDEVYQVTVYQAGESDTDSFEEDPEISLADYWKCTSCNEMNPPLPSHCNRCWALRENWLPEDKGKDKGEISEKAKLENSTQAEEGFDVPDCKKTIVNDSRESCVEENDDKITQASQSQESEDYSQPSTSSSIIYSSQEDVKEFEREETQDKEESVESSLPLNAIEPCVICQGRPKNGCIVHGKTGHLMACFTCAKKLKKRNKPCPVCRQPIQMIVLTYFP

Molecule | reactivity with recombinant full-length HDM2-GST protein in immunoblot [1] | relative binding (reactivity) to intact cells, cell-ELISA [2] | binding to intact, EDTA-released MiaPaCa-2 cells, cell-ELISA [3] | binding to intact MIA PaCa-2 cells when competed with NMC-P2 peptide [3] | binding to intact MIA PaCa-2 cells when competed with soluble NMC-P1 peptide [3] | binding to intact MIA PaCa-2 cells after pre-incubation with full-length recombinant HDM2 ([3]; FIG. 9) | relative binding (reactivity) to intact cells, cell-ELISA [3] | binding to intact normal human PBMCs, cell-ELISA [4] | % cells stained (flow cytometry) ([5]; EDTA-treated intact cells) | % cells stained (flow cytometry) [5, 7] | % cells stained (flow cytometry) ([5]; trypsin-treated intact cells) | growth inhibitory effect (FIG. 12D; number of living cells graphed as % of control) ([6]; antibody 1 μg/mL) | growth inhibitory effect (FIG. 12D; number of living cells graphed as % of control) ([6]; antibody 5 μg/mL) | growth inhibitory effect (FIG. 12D; number of living cells graphed as % of control) ([6]; antibody 10 μg/mL)
B1 | reacted | reactivity | bound | did not have any effect | completely abolished | reduced | reactivity | virtually no binding | 70.4% | 75.8% | 36.8% | 65% | 84% | 91%
B2 | reacted | reactivity | bound | competed | not with NMC-P1 |  | reactivity | did not react | 51.2% | 52.85% | 27% | 65% | 73% | 77%
